Measured values: publication PMC3953656

Experiments:
[1] = biological target: malate dehydrogenase (UniProt P00346)
[2] = biological target: Trypanosoma brucei Hsp70.c (Trypanosoma brucei brucei TREU927)
[3] = biological target: Trypanosoma cruzi Hsp70B (Trypanosoma cruzi)

Chain of UniProt P00346 (P00346 25-338): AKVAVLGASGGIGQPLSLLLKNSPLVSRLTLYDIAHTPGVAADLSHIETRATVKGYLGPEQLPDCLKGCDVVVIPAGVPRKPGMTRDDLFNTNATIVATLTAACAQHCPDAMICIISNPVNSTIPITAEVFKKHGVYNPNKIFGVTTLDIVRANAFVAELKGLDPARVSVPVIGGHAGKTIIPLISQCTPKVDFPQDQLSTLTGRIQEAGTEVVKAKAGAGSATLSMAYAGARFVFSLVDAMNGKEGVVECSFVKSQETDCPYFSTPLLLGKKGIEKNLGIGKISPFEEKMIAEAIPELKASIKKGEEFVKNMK

| stimulation of the basal ATPase activity of TbHsp70.c by Tbj2 (colorimetric phosphate release, 37°C, 600 µM ATP); equal concentrations 1.62-fold, Tbj2 at 2-fold molar excess 2.88-fold [2] [fold] | stimulation of the basal ATPase activity of TcHsp70B by Tbj2 (colorimetric phosphate release, 37°C, 600 µM ATP); equal concentrations 1.39-fold, Tbj2 at 2-fold molar excess 2.62-fold [3] [fold] | Substance | suppression of thermal aggregation of MDH (0.72 µM, 48°C, light scatter at 360 nm, 30 min) by TbHsp70.c, dose-dependent; number printed for 0.5 µM TbHsp70.c [1] [%] |
| --- | --- | --- | --- |
|  |  | Trypanosoma brucei Hsp70.c (natural protein) | 61.8 |
| 2.88 | 2.62 | Trypanosoma brucei J protein 2 (natural protein) |  |
